Assay results reported in patent publication US20050136043A1, “TGFbeta signaling inhibitors” (Ludwig Institute for Cancer Research, priority 2003, published 2005).

Columns and labels:
[1] = system: phosphorylation of endogenous Smad2 by TβR-I in Mv1Lu cells; test: TGFβ1-dependent phosphorylation of endogenous Smad2 in Mv1Lu cells (pS2 immunoblot); format: cell-based; conditions: Mv1Lu cells pretreated with peptide, 15 min TGFβ1, FIG. 6A
[2] = biological target: T1, ALK-1 (Homo sapiens, UniProt P37023); test: In vitro kinase assay (autophosphorylation) of receptor expressed in COS-7 cells; format: biochemical; conditions: 10 μM peptide, FIG. 5
T1 construct: made in house; host or cells: COS-7 cells (transfected, immunoprecipitated)
T1 sequence (P37023 22-503, species assumed): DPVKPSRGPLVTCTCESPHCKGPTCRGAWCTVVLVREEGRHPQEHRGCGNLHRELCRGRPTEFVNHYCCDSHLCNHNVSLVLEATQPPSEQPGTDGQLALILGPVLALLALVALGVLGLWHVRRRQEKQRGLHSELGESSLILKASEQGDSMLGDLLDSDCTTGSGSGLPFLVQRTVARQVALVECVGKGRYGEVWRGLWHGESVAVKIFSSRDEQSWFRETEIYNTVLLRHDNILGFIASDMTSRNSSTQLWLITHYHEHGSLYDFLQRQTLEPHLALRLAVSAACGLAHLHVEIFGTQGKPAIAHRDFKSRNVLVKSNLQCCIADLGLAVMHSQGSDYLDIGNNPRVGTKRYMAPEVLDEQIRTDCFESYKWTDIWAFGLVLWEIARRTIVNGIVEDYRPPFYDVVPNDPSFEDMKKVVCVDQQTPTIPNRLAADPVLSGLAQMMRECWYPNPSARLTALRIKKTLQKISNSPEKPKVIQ
Protocol: (§1) For in vitro kinase assay of type I and type II TGFβ family receptors, p38α and SAPKα2 kinases, COS-7 cells were transfected with the kinase expression vectors or the control empty pcDNA3 vector using the DEAE-dextran method. Proteins were extracted in a lysis buffer (50 mM Tris-HCl, pH 7.5, 50 mM NaCl, 1% NP-40, 10 μg/mL aprotinin, 0.1 mM PMSF). HA-tagged proteins (ALK1 to ALK7, p38R, SAPKR2) were immunoprecipitated with anti-HA antibody (12CA5; Roche); His6-tagged proteins (type II receptors) were precipitated with Ni-NTA agarose (Qiagen). The precipitates were washed in extraction buffer, with 20 mM imidazole for Ni-NTA agarose-precipitated proteins, and two times with kinase buffer (20 mM HEPES, pH 7.4, 10 mM MgCl2, 2 mM MnCl2, 1 mM DTT). The kinase reaction was initiated by addition of 20 μL of kinase buffer containing 0.5 μCi of [γ-32P]ATP, 5.0 μM ATP, and inhibitory peptides at a final concentration of 10 μM. The reaction was performed at 22° C. for 20 min and terminated by addition of SDS-containing sample buffer and boiling for 5 min. The reaction products were analyzed by SDS-PAGE and exposure in a Fuji X2000 phosphorimager. Equal loading was controlled by immunoblotting aliquots of the samples with a HA probe (Y-11; Santa Cruz) or anti-His antibody (Qiagen).
(§2) To evaluate whether the substrate-mimicking peptides affect kinases of type I and type II reptors of the TGFβ family, we studied the influence of peptides on authophosphorylation of all known mammalian type I receptors [ALK-1, ActR-I (ALK-2), BMPR-IA (ALK-3), ActR-IB (ALK-4), TβR-I (ALK-5), BMPR-IB (ALK-6), and ALK-7], TβRII, ActR-II, BMPR-II, p38R, and SAPKR2 (FIG. 5). The kinases were expressed in COS-7 cells and purified by using specific anti-tag antibodies or Ni-NTA agarose, and kinase activity was tested in the presence of peptides.

[3] = biological target: T2, BMPR-IB (ALK-6) (Homo sapiens, UniProt O00238); test: as above; format: biochemical; conditions: 10 μM peptide, FIG. 5
T2 construct: made in house; host or cells: COS-7 cells (transfected, immunoprecipitated)
T2 sequence (O00238 14-502): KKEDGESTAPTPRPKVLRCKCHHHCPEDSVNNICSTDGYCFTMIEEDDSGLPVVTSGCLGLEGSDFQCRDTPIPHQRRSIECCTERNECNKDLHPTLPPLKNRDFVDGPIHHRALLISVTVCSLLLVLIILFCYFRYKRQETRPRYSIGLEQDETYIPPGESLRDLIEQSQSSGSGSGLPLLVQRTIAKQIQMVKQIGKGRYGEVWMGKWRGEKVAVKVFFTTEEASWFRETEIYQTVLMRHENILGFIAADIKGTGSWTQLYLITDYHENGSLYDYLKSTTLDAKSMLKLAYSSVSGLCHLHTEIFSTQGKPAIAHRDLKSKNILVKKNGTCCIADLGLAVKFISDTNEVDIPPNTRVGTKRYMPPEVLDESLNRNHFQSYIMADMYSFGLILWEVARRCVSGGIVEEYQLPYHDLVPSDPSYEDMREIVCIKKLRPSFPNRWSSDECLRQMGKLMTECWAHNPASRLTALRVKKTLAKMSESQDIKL
Protocol: as §1, §2

[4] = biological target: T3, BMPR-II (Homo sapiens, UniProt Q13873); test: as above; format: biochemical; conditions: 10 μM peptide, FIG. 5
T3 construct: made in house; host or cells: COS-7 cells (transfected, Ni-NTA precipitated)
T3 sequence (Q13873 27-1038): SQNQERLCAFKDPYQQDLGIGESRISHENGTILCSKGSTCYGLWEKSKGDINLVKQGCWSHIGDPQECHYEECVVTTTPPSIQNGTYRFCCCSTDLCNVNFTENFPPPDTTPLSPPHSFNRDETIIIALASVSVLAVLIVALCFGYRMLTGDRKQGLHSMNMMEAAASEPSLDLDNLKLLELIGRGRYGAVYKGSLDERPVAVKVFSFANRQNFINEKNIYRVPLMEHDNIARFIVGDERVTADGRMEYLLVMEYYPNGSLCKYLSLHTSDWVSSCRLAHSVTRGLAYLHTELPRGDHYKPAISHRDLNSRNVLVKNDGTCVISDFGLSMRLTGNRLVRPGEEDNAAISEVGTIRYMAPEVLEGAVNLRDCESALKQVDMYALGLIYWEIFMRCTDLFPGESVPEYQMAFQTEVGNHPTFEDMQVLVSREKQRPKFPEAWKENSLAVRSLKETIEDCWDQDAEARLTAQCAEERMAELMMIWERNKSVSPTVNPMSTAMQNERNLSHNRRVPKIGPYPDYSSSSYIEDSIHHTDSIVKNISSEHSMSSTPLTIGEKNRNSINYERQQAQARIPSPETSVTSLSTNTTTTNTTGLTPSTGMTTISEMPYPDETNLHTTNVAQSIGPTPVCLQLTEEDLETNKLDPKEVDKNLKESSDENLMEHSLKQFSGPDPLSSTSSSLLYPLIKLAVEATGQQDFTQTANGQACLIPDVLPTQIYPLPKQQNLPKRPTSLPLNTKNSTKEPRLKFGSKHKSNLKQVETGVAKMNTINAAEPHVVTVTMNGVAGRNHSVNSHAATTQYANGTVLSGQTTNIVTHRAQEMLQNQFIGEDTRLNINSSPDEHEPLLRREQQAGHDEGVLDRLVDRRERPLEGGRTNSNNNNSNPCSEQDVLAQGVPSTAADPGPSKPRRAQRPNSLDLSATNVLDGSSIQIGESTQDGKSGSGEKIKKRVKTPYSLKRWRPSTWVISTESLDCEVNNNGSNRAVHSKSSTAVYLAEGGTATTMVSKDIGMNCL
Protocol: as §1, §2

[5] = biological target: SAPKR2 (Homo sapiens, UniProt P45984); test: In vitro kinase assay of kinase expressed in COS-7 cells; format: biochemical; conditions: 10 μM peptide, FIG. 5
Protocol: as §1, §2

[6] = biological target: p38R (Homo sapiens, UniProt Q16539); test: as above; format: biochemical; conditions: 10 μM peptide, FIG. 5
Chain of p38R (Q16539 whole entry): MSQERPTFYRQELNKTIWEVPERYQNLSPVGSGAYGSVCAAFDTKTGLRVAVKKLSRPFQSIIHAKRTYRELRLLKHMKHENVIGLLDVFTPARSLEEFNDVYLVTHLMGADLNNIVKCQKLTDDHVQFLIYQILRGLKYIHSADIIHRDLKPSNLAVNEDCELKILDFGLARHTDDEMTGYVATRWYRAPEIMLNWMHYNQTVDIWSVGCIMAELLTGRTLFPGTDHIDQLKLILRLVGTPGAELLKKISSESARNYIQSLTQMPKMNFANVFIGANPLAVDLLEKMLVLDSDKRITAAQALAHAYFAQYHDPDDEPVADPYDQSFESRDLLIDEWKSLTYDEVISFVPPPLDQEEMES
Protocol: as §1, §2

[7] = biological target: T4, constitutively active TβR-I (Homo sapiens, UniProt P36897, T204D); test: In vitro kinase assay with immunoprecipitated constitutively active TβR-I expressed in Mv1Lu cells; format: biochemical; conditions: immunoprecipitated from Mv1Lu cells, data not shown
T4 construct: made in house; host or cells: Mv1Lu cells (expressed, immunoprecipitated)
T4 sequence (P36897 34-503 T204D): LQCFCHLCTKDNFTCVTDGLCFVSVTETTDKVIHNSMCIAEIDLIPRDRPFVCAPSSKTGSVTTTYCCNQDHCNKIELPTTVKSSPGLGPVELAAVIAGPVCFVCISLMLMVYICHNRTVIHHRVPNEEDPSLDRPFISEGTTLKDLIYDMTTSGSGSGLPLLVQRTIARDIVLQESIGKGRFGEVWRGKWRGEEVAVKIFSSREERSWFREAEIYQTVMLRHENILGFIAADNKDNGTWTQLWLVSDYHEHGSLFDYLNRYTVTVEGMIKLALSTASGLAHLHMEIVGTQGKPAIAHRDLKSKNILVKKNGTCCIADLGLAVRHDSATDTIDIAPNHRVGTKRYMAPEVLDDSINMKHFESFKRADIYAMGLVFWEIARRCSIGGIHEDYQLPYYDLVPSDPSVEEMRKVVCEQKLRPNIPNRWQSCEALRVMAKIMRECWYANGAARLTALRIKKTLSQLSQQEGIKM

[8] = system: TGFβ1-dependent stimulation of ARE-luc in Mv1Lu cells; test: ARE-luc luciferase reporter assay (Smad2-responsive element) in Mv1Lu cells; format: cell-based; conditions: peptide 50 μM, TGFβ1 10 ng/ml, 18 hours

| Sequence | Inhibition of TGFβ1-dependent phosphorylation of endogenous Smad2 compared to nontreated cells [1] [%] | Effect on ALK-1 kinase [2] | Effect on BMPR-IB (ALK-6) kinase [3] | Effect on BMPR-II kinase [4] | Effect on SAPKR2 kinase [5] | Effect on p38R kinase [6] | Inhibition of autophosphorylation of TβR-I [7] | Inhibition of TGFβ1-dependent stimulation of ARE-luc [8] | Effect of peptides on TGFβ1-dependent phosphorylation of endogenous Smad2 [1] | Effect on TGFβ1-dependent stimulation of ARE-luc [8] |
| --- | --- | --- | --- | --- | --- | --- | --- | --- | --- | --- |
| RQIKIWFQNRRMKWKKTQMGSPSVRCSAMA (listed as Homo sapiens) [antp-Sm2A] | 67 | without any effect | without any effect | without any effect | without any effect | without any effect | inhibited autophosphorylation | up to 31% | – | – |
| RQIKIWFQNRRMKWKKTQMGSPSVRCSSMS (listed as Homo sapiens) [antp-Sm2S, penetratin fused to the C-terminus of wild-type Smad2] | – | without any effect | without any effect | without any effect | without any effect | without any effect | inhibited autophosphorylation | – | weaker affect | no effect |
